Experimental data as given in US20200246484.

Test system: MMP-responsive peptide (P3), cleavable 'L' form, conjugated to PEG (2, 5 or 10 kD) and attached directly to 13-nm Au nanoparticle SNAs

MMP-9
MMP9-mediated cleavage kinetics (fluorescence on release of the N-terminal fluorophore from the Au surface): decrease in cleavage rates for 5 kD and 10 kD PEG compared to 2 kD PEG
